± gives the uncertainty stated by the source.

A short description of this series: self-splicing fitness, log relative to wild type (ln ratio); higher = more splicing; Tetrahymena group I intron in knt gene, E. coli kanamycin selection, DiMSum; sequences stand for … in CUCUCU…GGAGGGAAAAGUUAUCAGGCAUGCACCUGGUAGCUAGUCUUUAAACCAAUAGAUUGCAUCGGUUUAAAAGGCAAGACCGUCAAAUUGCGGGAAAGGGGUCAACAGCCGUUCAGUACCAAGUCUCAGGGGAAACUUUGAGAUGGCCUUGCAAAGGGUAUGGUAAUAAGCUGACGGACAUGGUCCUAACCACGCAGCCAAGUCCUAAGUCAACAGAUCUUCUGUUGAUAUGGAUGCAGUUCACAGACUAAAUGUCGGUCGGGGAAGAUGUAUUCUUCUCAUAAGAUAUAGUCGGACCUCUCCUUAAUGGGAGCUAGCGGAUGAAGUGAUGCAACACUGGAGCCGCUGGGAACUAAUUUGUAUGCGAAAGUAUAUUGAUUAGUUUUGGAGUACUCGUGGUCG
The essentials: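 Library with all eight P1ex-region intron nucleotides randomised, intron inside the knt kanamycin-resistance gene on pET-22b(+), in E. coli BL21(DE3). Cells grew overnight at 37°C or 30°C on LB agar with or without 25 μg/mL kanamycin (plus 100 μg/mL carbenicillin, 50 μM IPTG, 0.2% rhamnose), in six replicate transformations. Pooled colonies were amplicon-sequenced on Illumina HiSeq 2500. DiMSum fitness is the error-weighted combination of wild-type-normalised replicate fold changes, kanamycin versus none.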

Take AUCCAGCAAUAUUACGAAAU: the “self-splicing fitness (ln)” value is, setting by setting: (30 °C) -0.769 ± 0.084; (37 °C) -0.546 ± 0.11. On to AGGAAGCAAUAUUACGAGUG, for which the “self-splicing fitness (ln)” value was -2.62 ± 0.13 (30 °C) and -1.8 ± 0.14 (37 °C). Regarding AUGAAGCAAUAUUACGCGGG, the “self-splicing fitness (ln)” value was -1.39 ± 0.11 (30 °C) and -0.785 ± 0.14 (37 °C). GCCUAGCAAUAUUACGCUGC: the “self-splicing fitness (ln)” value (37 °C) is -1.32 ± 0.21. In the case of UUACAGCAAUAUUACGGAGG, the “self-splicing fitness (ln)” value is -2.31 ± 0.22 (30 °C) and -2.1 ± 0.36 (37 °C). GUUCAGCAAUAUUACGGCUC: the “self-splicing fitness (ln)” value is 0.0792 ± 0.12 (30 °C) and -0.018 ± 0.12 (37 °C). For ACUAAGCAAUAUUACGUCGC the same measures were -3.12 ± 0.18 and -1.86 ± 0.2. Taken in the same sequence, the figures for GUAGAGCAAUAUUACGGGCU were -2.37 ± 0.3 and -1.89 ± 0.41. For the sequence GGAAAGCAAUAUUACGGAUC, the “self-splicing fitness (ln)” value by setting is: (30 °C) -0.0161 ± 0.075; (37 °C) 0.0803 ± 0.09. Taken in the same sequence, the figures for GAUCAGCAAUAUUACGUCCC were -2.07 ± 0.41 and -0.381 ± 0.22. For GUCAAGCAAUAUUACGUACU, the “self-splicing fitness (ln)” value runs as follows: (30 °C) -1.98 ± 0.13; (37 °C) -0.175 ± 0.12.

With UCCCAGCAAUAUUACGACAA, the “self-splicing fitness (ln)” value was -2.16 ± 0.15 (30 °C) and -1.37 ± 0.14 (37 °C).

Regarding CAGAAGCAAUAUUACGCCAU, the “self-splicing fitness (ln)” value is -2.66 ± 0.14 (30 °C) and -2.77 ± 0.18 (37 °C). Turning to GUUUAGCAAUAUUACGCCUU, the “self-splicing fitness (ln)” value runs as follows: (30 °C) -1.21 ± 0.17; (37 °C) -0.678 ± 0.21.

Take CUAAAGCAAUAUUACGCGAG: the “self-splicing fitness (ln)” value is, setting by setting: (30 °C) -0.464 ± 0.077; (37 °C) 0.0633 ± 0.11.

As to GCCAAGCAAUAUUACGGGAC, the “self-splicing fitness (ln)” value by setting is: (30 °C) -3.02 ± 0.15; (37 °C) -0.694 ± 0.099. With GCGCAGCAAUAUUACGGAAC, the “self-splicing fitness (ln)” value is -1.37 ± 0.081 (30 °C) and -0.714 ± 0.098 (37 °C). Taken in the same sequence, the figures for GCAAAGCAAUAUUACGGCGU were -1.78 ± 0.1 and -0.692 ± 0.12. AUGGAGCAAUAUUACGAUUC: where the note is “30 °C”, the “self-splicing fitness (ln)” value was -2.21 ± 0.3.

For the sequence UUCUAGCAAUAUUACGACAU, the “self-splicing fitness (ln)” value is, setting by setting: (30 °C) -2.324 ± 0.019; (37 °C) -1.57 ± 0.034. Turning to AAAAAGCAAUAUUACGUUAU, the “self-splicing fitness (ln)” value (30 °C) was -2.13 ± 0.071 and the “self-splicing fitness (ln)” value (37 °C) was -1.55 ± 0.1. Taken in the same sequence, the figures for AAGGAGCAAUAUUACGGCUC were -4.14 ± 0.37 and -2.77 ± 0.36. In the case of UCGAAGCAAUAUUACGACCG, the “self-splicing fitness (ln)” value is, setting by setting: (30 °C) -0.853 ± 0.12; (37 °C) -0.898 ± 0.14. Taken in the same sequence, the figures for AUGAAGCAAUAUUACGAGGG were -2.64 ± 0.21 and -2.83 ± 0.28.

In the case of AACUAGCAAUAUUACGUCUC, the “self-splicing fitness (ln)” value (30 °C) was -3.37 ± 0.16 and the “self-splicing fitness (ln)” value (37 °C) was -2.54 ± 0.15. Taken in the same sequence, the figures for AUUAAGCAAUAUUACGUCAU were -1.51 ± 0.1 and -0.717 ± 0.12. For AUAAAGCAAUAUUACGUUGU, the “self-splicing fitness (ln)” value by setting is: (30 °C) -2.65 ± 0.11; (37 °C) -1.9 ± 0.11. For GGAAAGCAAUAUUACGGGCA the same measures were -1.2 ± 0.14 and -1.15 ± 0.18. UAUAAGCAAUAUUACGCUGC: the “self-splicing fitness (ln)” value (30 °C) is -3.35 ± 0.32. GUGCAGCAAUAUUACGACUA: the “self-splicing fitness (ln)” value (30 °C) is -0.908 ± 0.24 and the “self-splicing fitness (ln)” value (37 °C) is -0.48 ± 0.26. Take UUUGAGCAAUAUUACGAUGC: for the setting “37 °C”, the “self-splicing fitness (ln)” value is -1.81 ± 0.4. As to CAUUAGCAAUAUUACGAACU, the “self-splicing fitness (ln)” value by setting is: (30 °C) -2.29 ± 0.31; (37 °C) -2.63 ± 0.36. Consider AUGGAGCAAUAUUACGGCGA, for which the “self-splicing fitness (ln)” value (37 °C) is -1.68 ± 0.29. On to AAUAAGCAAUAUUACGCUCU, for which the “self-splicing fitness (ln)” value was -0.422 ± 0.079 (30 °C) and -0.115 ± 0.09 (37 °C). Taken in the same sequence, the figures for UGAAAGCAAUAUUACGUGCC were -0.125 ± 0.12 and -0.826 ± 0.15.

In the case of GGAUAGCAAUAUUACGCAAA, for the setting “30 °C”, the “self-splicing fitness (ln)” value was -2.14 ± 0.29. As to AAUGAGCAAUAUUACGAAAC, the “self-splicing fitness (ln)” value (37 °C) is -1.27 ± 0.32. In the case of UCGUAGCAAUAUUACGCCAA, the “self-splicing fitness (ln)” value is -3.89 ± 0.3 (30 °C) and -1.4 ± 0.17 (37 °C). ACCGAGCAAUAUUACGCACU: the “self-splicing fitness (ln)” value was -1.62 ± 0.14 (30 °C) and -0.517 ± 0.13 (37 °C). For CGUAAGCAAUAUUACGAAAU the same measures were -3.16 ± 0.27 and -1.86 ± 0.25.

On to AUAAAGCAAUAUUACGGAUA, for which the “self-splicing fitness (ln)” value (30 °C) is -1.7 ± 0.11 and the “self-splicing fitness (ln)” value (37 °C) was -0.75 ± 0.11.

As for UACAAGCAAUAUUACGGACA, the “self-splicing fitness (ln)” value is -0.516 ± 0.087 (30 °C) and 0.0805 ± 0.083 (37 °C). Take GCCAAGCAAUAUUACGGAUU: the “self-splicing fitness (ln)” value is -1.2 ± 0.056 (30 °C) and -0.294 ± 0.08 (37 °C). On to CGUUAGCAAUAUUACGCGUC, for which the “self-splicing fitness (ln)” value (30 °C) is -3.47 ± 0.23. In the case of AGAUAGCAAUAUUACGAGUU, the “self-splicing fitness (ln)” value is -2.21 ± 0.1 (30 °C) and -0.588 ± 0.099 (37 °C). UCGGAGCAAUAUUACGUGCU: for the setting “37 °C”, the “self-splicing fitness (ln)” value was -2.66 ± 0.27.

Take UAGUAGCAAUAUUACGGGCC: the “self-splicing fitness (ln)” value is -2.91 ± 0.23 (30 °C) and -1.62 ± 0.22 (37 °C). Taken in the same sequence, the figures for UGGAAGCAAUAUUACGCGAG were -1.26 ± 0.19 and 0.167 ± 0.16.

In the case of UUUGAGCAAUAUUACGUGCG, the “self-splicing fitness (ln)” value (37 °C) is -1.29 ± 0.25. As to ACCUAGCAAUAUUACGUGAU, the “self-splicing fitness (ln)” value was -1.5 ± 0.057 (30 °C) and -0.344 ± 0.074 (37 °C). For CGCUAGCAAUAUUACGUCUC, the “self-splicing fitness (ln)” value is -2.62 ± 0.48 (30 °C) and -1.46 ± 0.23 (37 °C).

Take CAAUAGCAAUAUUACGACGG: the “self-splicing fitness (ln)” value is -0.109 ± 0.076 (30 °C) and 0.524 ± 0.1 (37 °C). As to AUUCAGCAAUAUUACGGCUU, the “self-splicing fitness (ln)” value is 0.744 ± 0.12 (30 °C) and -0.128 ± 0.13 (37 °C). For UCAGAGCAAUAUUACGUAGG the same measures were -0.836 ± 0.12 and -0.744 ± 0.17. For CAUUAGCAAUAUUACGAUAU the same measures were -2.91 ± 0.2 and -3.27 ± 0.3. Taken in the same sequence, the figures for AACCAGCAAUAUUACGUGGC were -3.06 ± 0.12 and -2.99 ± 0.17. Turning to GCCCAGCAAUAUUACGAAGC, the “self-splicing fitness (ln)” value (30 °C) is -2.36 ± 0.19 and the “self-splicing fitness (ln)” value (37 °C) was -0.479 ± 0.2. For UUUAAGCAAUAUUACGGUCC the same measures were -2.33 ± 0.3 and -1.25 ± 0.25. On to GGGCAGCAAUAUUACGGAGC, for which the “self-splicing fitness (ln)” value was -2.15 ± 0.19 (30 °C) and -1.12 ± 0.2 (37 °C).

Regarding UGACAGCAAUAUUACGAGGG, the “self-splicing fitness (ln)” value by setting is: (30 °C) -3.73 ± 0.44; (37 °C) -2.11 ± 0.35. Consider UCACAGCAAUAUUACGCACC, for which the “self-splicing fitness (ln)” value (30 °C) is -2.35 ± 0.3. As for AGGGAGCAAUAUUACGCUUG, the “self-splicing fitness (ln)” value (30 °C) was -1.95 ± 0.27. Consider CACGAGCAAUAUUACGCGUU, for which the “self-splicing fitness (ln)” value by setting is: (30 °C) -4.28 ± 0.47; (37 °C) -2.1 ± 0.18.

In the case of AAAUAGCAAUAUUACGAGCG, the “self-splicing fitness (ln)” value runs as follows: (30 °C) -1.75 ± 0.17; (37 °C) -0.208 ± 0.15. With ACAGAGCAAUAUUACGAAAA, the “self-splicing fitness (ln)” value (37 °C) is -3.05 ± 0.4. Consider UCUGAGCAAUAUUACGCUCU, for which the “self-splicing fitness (ln)” value (30 °C) is -2.96 ± 0.46. Consider AAGUAGCAAUAUUACGGCGU, for which the “self-splicing fitness (ln)” value was -0.422 ± 0.091 (30 °C) and 0.27 ± 0.11 (37 °C). As for CGUAAGCAAUAUUACGUAGU, the “self-splicing fitness (ln)” value was -3.74 ± 0.27 (30 °C) and -1.48 ± 0.18 (37 °C). For GGGUAGCAAUAUUACGAUCG the same measures were -0.211 ± 0.16 and -0.869 ± 0.22. Take CGCAAGCAAUAUUACGCUGG: the “self-splicing fitness (ln)” value (30 °C) was -3.06 ± 0.31 and the “self-splicing fitness (ln)” value (37 °C) is -2.09 ± 0.25. Turning to UGUCAGCAAUAUUACGAUGA, the “self-splicing fitness (ln)” value is, setting by setting: (30 °C) 0.232 ± 0.075; (37 °C) 0.333 ± 0.09. As for UUUUAGCAAUAUUACGGGUU, the “self-splicing fitness (ln)” value (37 °C) is -2.26 ± 0.29. Regarding CCAUAGCAAUAUUACGAUAG, the “self-splicing fitness (ln)” value was -0.989 ± 0.06 (30 °C) and -0.387 ± 0.076 (37 °C). Taken in the same sequence, the figures for GUAAAGCAAUAUUACGCCUC were -0.782 ± 0.12 and 0.463 ± 0.16. Taken in the same sequence, the figures for UUGAAGCAAUAUUACGUAGU were -1.97 ± 0.12 and -1.54 ± 0.12. Take GACGAGCAAUAUUACGUUUG: the “self-splicing fitness (ln)” value is -3.1 ± 0.22 (30 °C) and -1.94 ± 0.26 (37 °C).

As for AGUCAGCAAUAUUACGCGUU, the “self-splicing fitness (ln)” value reads like this: (30 °C) 0.159 ± 0.077; (37 °C) 0.0714 ± 0.085. For the sequence UCGCAGCAAUAUUACGAAUA, the “self-splicing fitness (ln)” value (30 °C) was -2.57 ± 0.22 and the “self-splicing fitness (ln)” value (37 °C) was -1.74 ± 0.16. For GGUAAGCAAUAUUACGAAGU the same measures were -1.93 ± 0.31 and -1.78 ± 0.25. Turning to CUCAAGCAAUAUUACGGACG, the “self-splicing fitness (ln)” value is -0.792 ± 0.063 (30 °C) and 0.266 ± 0.095 (37 °C).

These data come from the supplement of paper PMC7877785.
